B1: CFHR2 (parent)
chain: FVENGHSESSGQTHLEGDTVQIIC
B2: PTPN9 (parent)
chain: TQHLPRECLPENLGGYVKIDLATW

Variants of: B1
Test: protein stability index of a GFP-peptide fusion (GPS, HEK-293T) (PSI 1-6); higher = more stable
Conditions: c terminus: a fixed tail appended
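Also: lentivirally expressed fusions sorted by FACS into six bins by GFP to DsRed ratio, PSI derived from sequencing read proportions per bin multiplied by bin number.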

Protein stability index of substitutions, site by site:
I23: K 3.35; S 3.21; P 3.24; T 3.88; W 2.35; L 3.71; V 3.22; C 2.73; F 2.1; Y 2.11; Q 3.35; H 3.47; A 3.95; G 3.52; N 3.77; E 4.13; M 2.83; R 2.9; D 4.42
T19: E 3.09; P 3.13; Y 2.24; G 3.25; Q 3.19; M 2.33; N 3.71; L 2.14; H 3.1; V 3.3; F 2.66; I 2.62; C 2.84; W 1.53; K 2.82; D 3.68; R 2.37; S 3.21
E16: I 2.25; D 3.12; T 2.62; N 2.15; Q 2.33; P 2.42; S 2.71; A 2.13; M 2.14; L 2.59; C 1.82; H 1.86; V 1.76; G 2.01; K 2.19; R 2.63
T13: H 2.34; R 2.47; P 2.87; Q 3.18; W 1.85; L 2.29; S 2.95; N 3.35; Y 2.19; G 3.03; K 2.48; V 2.24; M 2.19; I 2.06
I22: G 3.85; C 3.17; Q 3.74; A 3.56; N 3.49; E 4.08; H 3.58; L 2.34; V 3.02; Y 3.1; R 3.53; W 1.67; T 3.87; P 3.99; M 2.63; S 4.26; F 3.03; D 4.25; K 3.74
G17: A 2.3; E 4.47; T 2.91; S 2.77; F 1.8; Y 1.73; C 2.28; W 1.79; N 2.9; L 2.08; D 3.46; H 2.99; I 2.05; R 2.52; V 2.11; P 2.81; Q 2.97; K 2.54; M 2.29
Q21: C 2.18; D 3.69; H 2.24; T 2.79; G 3.01; F 1.91; K 2.83; M 1.92; V 1.85; L 1.17; A 3.11; Y 2.58; S 2.91; E 3.15; N 3.29; I 1.82; P 3.04; R 2.9
V20: E 4.03; G 4; P 3.26; F 2.02; Y 2.71; S 2.74; R 3.3; T 3.74; C 2.69; L 2.45; K 3.06; D 3.81; N 3.66; I 2.19; H 3.41; Q 4.09; W 1.57; M 2.59; A 3.64
H14: C 1.96; E 4.18; W 1.75; T 3.08; M 2.35; V 2.95; F 1.89; N 3.43; D 3.29; S 3.02; R 2.89; P 2.83; G 2.47; Y 2.52; A 3.11; L 2.37; Q 3.46; I 3.28; K 2.35
C24: I 2.49; M 2.28; Q 4.31; H 3.23; T 3.61; V 1.95; S 3.91; A 3.96; P 3.87; D 4.46; F 1.88; L 2.38; K 3.29; G 3.8; E 3.88; R 3.57; Y 2.08; N 3.42; W 3.05
D18: K 2.52; G 2.3; W 1.62; Q 2.47; A 2.13; E 2.76; M 1.83; Y 2.36; S 2.58; H 2.28; R 2.07; F 2.33; I 2.02; C 1.65; V 2.34; P 2.23; L 2.62; N 2.25; T 2.31
L15: Q 3.65; P 3.2; S 3.22; I 2.69; M 3.13; D 3.4; E 3.15; K 3.25; T 3.12; W 1.53; V 2.99; G 2.9; F 2.2; H 3; A 3.22; C 2.78; Y 2.76; R 2.87; N 3.49

Variants of: B2
Test: as above
Conditions: c terminus: a fixed tail appended

Protein stability index: each site, then its substitutions
Q2: H 1.52; V 1.66; C 2.11; A 1.84; Y 2.48; E 2.08; S 1.73; N 2.05; F 1.31; P 2.02; D 2.02; M 1.47; G 2.5; W 1.49; I 1.96; R 1.76; T 1.99; K 1.86; L 2.17
P5: I 2.88; C 1.77; L 2.83; F 1.82; K 2.68; W 2.33; N 2.04; G 1.73; T 1.92; M 1.53; D 2.26; A 2.18; H 1.95; E 2.6; S 1.89; Y 1.64; R 2.45; Q 1.66; V 1.57
H3: A 1.84; M 1.92; R 1.56; L 1.92; V 1.64; Y 1.66; P 1.77; G 2.1; S 2.15; C 1.91; F 2.35; N 2.03; I 1.79; Q 1.91; T 2.45; D 2.86; W 1.65; E 2.28; K 2.03
T1: D 2.51; A 2.06; G 2.15; H 2.07; Y 2.31; E 2.06; R 2.1; F 2.14; K 1.88; M 1.57; V 1.74; N 2.18; S 2.11; C 1.51; Q 2.05; W 2.54; P 2.07; L 1.67; I 1.72
L4: V 1.96; E 2.46; N 2; Y 1.99; S 1.8; G 1.96; D 2.31; M 2.38; K 2.1; P 2.5; Q 2.82; A 1.8; I 1.86; T 1.98; H 2.53; F 2.06; W 2.14; C 2.43; R 2.04
R6: E 2.27; C 1.69; S 2.18; G 2.51; V 2.26; T 2.2; D 2.52; L 1.49; A 2.08; Y 1.69; F 1.81; N 1.98; M 2.16; P 2.24; H 1.63; I 1.99; W 1.57; K 2.2; Q 2.31
E7: C 2.49; A 1.82

Source: the supplement of paper PMC10567573
